From paper PMC6389942 come the findings set out here.

This assay has as its target HA-Cep57 (centrosomal protein of 57 kDa, full length), Q86XR8-1. Put plainly: co-IP (FLAG IP, HA-Cep57 western blot band quantification). Particulars: HEK293T cells; three independent experiments; parent: est. 1.0; read off a plot. For orientation: Immunoblotting shows a protein as a band on a membrane.

Sequence of HA-Cep57 (centrosomal protein of 57 kDa, full length), Q86XR8-1 (Q86XR8 whole entry): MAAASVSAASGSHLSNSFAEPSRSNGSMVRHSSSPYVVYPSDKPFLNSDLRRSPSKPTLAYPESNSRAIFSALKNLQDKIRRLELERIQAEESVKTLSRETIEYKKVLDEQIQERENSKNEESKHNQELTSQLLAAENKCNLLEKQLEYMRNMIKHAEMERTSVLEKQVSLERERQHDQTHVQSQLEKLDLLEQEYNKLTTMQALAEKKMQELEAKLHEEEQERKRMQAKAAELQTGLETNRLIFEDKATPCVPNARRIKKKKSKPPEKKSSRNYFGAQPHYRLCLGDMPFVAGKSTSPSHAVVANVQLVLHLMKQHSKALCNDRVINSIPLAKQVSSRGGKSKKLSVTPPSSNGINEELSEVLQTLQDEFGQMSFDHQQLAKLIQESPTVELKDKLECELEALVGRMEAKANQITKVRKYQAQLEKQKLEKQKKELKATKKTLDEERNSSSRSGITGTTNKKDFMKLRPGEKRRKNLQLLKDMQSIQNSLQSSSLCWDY

Turning to FLAG-PCNT 2536–3336 WT K3154del, the response amounted to 0.11.
